# From publication doi:10.1101/2020.06.17.153486 (bioRxiv, 2020)
# B1: 2-4 Fab (Fab, V domains shown)
# VH: QVQLVQSGAEVKKPGASVKVSCKASGYTFTGYYMHWVRQAPGQGLEWMGWINPNSGGTNYTQMFQGRVTMTRDTSISTAYMEVSRLRSDDTAVYYCARDRSWAVVYYYMDVWGKGTTVTVSS
# VL: QSALTQPPSASGSPGQSVTISCTGTSSDVGGYNYVSWYQQHPGKAPKLMIYEVSKRPSGVPDRFSGSKSGNTASLTVSGLQAEDEADYYCSSYAGSNNLVFGGGTKLTVL
# Biological target: SARS-CoV-2 spike trimer (S trimer), soluble ectodomain (SARS-CoV-2, Wuhan-Hu-1 type, stabilised)
# Experiment: cryo-EM structure
binder,measurement,value
B1,stoichiometry N,3 Fab per trimer
